The values that follow are results of earlier work, collected in paper PMC6934455, “Molecular Dynamics model of peptide-protein conjugation: case study of covalent complex between Sos1 peptide and N-terminal SH3 domain from Grb2” (Scientific Reports, 2019).

A word on the Kd: it is the free concentration of one partner at which half of the binding sites on the other are occupied at equilibrium, for simple one-to-one binding.

This series concerns the target Sos1 peptide (Homo sapiens) (UniProt Q07889).

Sequence of Grb2 N-terminal SH3 (P62993 1-58): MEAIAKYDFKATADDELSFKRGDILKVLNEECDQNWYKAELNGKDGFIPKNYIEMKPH

In the case of “Grb2 N-terminal SH3 (from UniProt P62993)”, the dissociation constant (Kd) is 3.5 µM.
